Source: PMC4390835
Where two headings read alike, the source gives them in different places.

Legend:
[1] = target: Lsp1, C-terminally tagged with mVenus or mCerulean (S. cerevisiae) (UniProt Q12230); assay: FRET or BRET
[2] = target: Lsp1, C-terminally tagged with mVenus or mCerulean (S. cerevisiae) (UniProt Q12230); assay: FRET or BRET; remark: listed apart in the source
[3] = target: Lsp1, C-terminally tagged with mVenus or mCerulean (S. cerevisiae) (UniProt Q12230); assay: FRET or BRET; remark: listed apart in the source
[4] = target: Pil1, C-terminally tagged with mVenus or mCerulean (S. cerevisiae) (UniProt P53252); assay: FRET or BRET
[5] = target: Pil1, C-terminally tagged with mVenus or mCerulean (S. cerevisiae) (UniProt P53252); assay: FRET or BRET; remark: listed apart in the source
[6] = target: Pil1, C-terminally tagged with mVenus or mCerulean (S. cerevisiae) (UniProt P53252); assay: FRET or BRET; remark: listed apart in the source
[7] = target: Pil1, C-terminally tagged with mVenus or mCerulean (S. cerevisiae) (UniProt P53252); assay: FRET or BRET; remark: listed apart in the source
[8] = target: Pil1, C-terminally tagged with mVenus or mCerulean (S. cerevisiae) (UniProt P53252); assay: number and brightness
[9] = target: Pil1, C-terminally tagged with mVenus or mCerulean (S. cerevisiae) (UniProt P53252); assay: FRET or BRET; remark: listed apart in the source
[10] = target: Pil1, C-terminally tagged with mVenus or mCerulean (S. cerevisiae) (UniProt P53252); assay: FRET or BRET; remark: listed apart in the source
[11] = target: Pil1, C-terminally tagged with mVenus or mCerulean (S. cerevisiae) (UniProt P53252); assay: FRET or BRET; remark: listed apart in the source

| FRET efficiency [1] [%] | FRET efficiency [2] [%] | FRET efficiency [3] [%] | FRET efficiency [4] [%] | FRET efficiency [5] [%] | FRET efficiency [6] [%] | FRET efficiency [7] [%] | percent of Pil1-mVenus that corresponds to oligomers [8] [%] | FRET efficiency [9] [%] | FRET efficiency [10] [%] | FRET efficiency [11] [%] | Substance |
| --- | --- | --- | --- | --- | --- | --- | --- | --- | --- | --- | --- |
| 20 | 30 | 20 |  |  |  |  |  |  |  |  | Lsp1, C-terminally tagged with mVenus or mCerulean (from UniProt Q12230 1-341) (natural protein) |
|  |  |  | 5 | 28 | 10 | 20 | 8 | 18 | 10 | 15 | Pil1, C-terminally tagged with mVenus or mCerulean (from UniProt P53252 1-339) (natural protein) |
